Literature values in PMC5989558.

Target: CD80 (Homo sapiens) (UniProt P33681)
Chain of UniProt P33681 (P33681 35-242): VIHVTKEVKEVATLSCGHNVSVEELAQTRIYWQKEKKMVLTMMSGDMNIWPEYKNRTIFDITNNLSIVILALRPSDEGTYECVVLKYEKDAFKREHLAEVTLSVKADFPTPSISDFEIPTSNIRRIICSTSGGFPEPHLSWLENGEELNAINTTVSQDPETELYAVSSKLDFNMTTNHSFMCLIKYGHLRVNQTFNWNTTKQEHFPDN

- Kd: 20 µM
Substance: CD28 (from UniProt P10747)
